PMC6037669, “Optimization of a MT1-MMP-targeting Peptide and Its Application in Near-infrared Fluorescence Tumor Imaging” (Scientific Reports, 2018)
Ends that are not written are not given here. Peptide text beside a SMILES is read from it. * marks the point of attachment. X1 = CC[N+]1=C(C=CC=CC=C2N(CCCCCC(=O)*)c3ccc4c(S(=O)(=O)O)cc(S(=O)(=O)O)cc4c3C2(C)C)C(C)(C)c2c1ccc1c(S(=O)(=O)O)cc(S(=O)(=O)[O-])cc21

What was measured:
DQ-gelatin from pig skin = experiment: Enzymatic activity of recombinant MT1-MMP; assay type: biochemical; settings: refolded recombinant catalytic domain; unit not given
Procedure: The MT1-MMP catalytic domain (20 kDa) was expressed in Escherichia coli (E. coli) as inclusion bodies. The activated form was produced through refold method. The recombinant human MT1-MMP catalytic domain was produced by E. coli BL21 that carried expression plasmids. The bacteria were grown to an optical density of 0.4 at 37 °C prior to induction. The overexpression of the protein of interest was induced by adding […] to a final concentration of 0.5 mM. Cultivation was proceeded for 4 h before the bacteria were broken by an ultrasonic wave. The inclusion bodies (proMT1-MMP) were solubilized and purified through his-tag affinity chromatography (General Electric, USA), as well as refolded by using dialysis bags to gradually reduce high denaturant concentrations in this process. […]
The protein samples from induced lysates, inclusion bodies and renaturation were separated by 15% reducing sodium dodecyl sulfate–polyacrylamide gel electrophoresis (SDS–PAGE) gel followed by Coomassie Brilliant Blue R-250 (CBB) staining. Protein concentration was measured at each step by the BCA Protein Assay Kit (Thermo Scientific, USA) according to manufacturer’s instructions. After renaturation of MT1-MMP, the enzymatic activity of the recombinant MT1-MMP was measured by using fluorescein conjugated substrate, DQ™-gelatin from pig skin (Molecular Probes).

[1] = system: MDA-MB-435 tumors (MT1-MMP); experiment: Whole-body small animal near-infrared fluorescence imaging
Procedure: (§1) All of the animal experiments were conducted in accordance with the principles and procedures outlined in the ethics committee of Jilin University, and approved by Animal Care and Use Committee (CC/ACUCC) of Xiamen University. Subcutaneous sites of athymic nude mice (BALB/c, 6 weeks old, female, 19–21 g) were injected with a suspension of 1 × 10^7 breast carcinoma MDA-MB-435 cells in PBS (100 μL). Tumor growth was assessed with caliper measurements every 2 days, and tumor size was determined using the formula: V = a^*(b^2)/2, where a is the maximum length and b is the maximum width of each tumor in mm respectively. The tumor-bearing mice (n = 5/group) were subjected to optical imaging experiments once the tumor volume (in the right front leg region) reached average size of 200 mm^3 (Error less than 18 mm^3), mice were randomly allocated into three groups: Cy5.5-MT1-AF7p-H4R, Cy5.5-MT1-AF7p-H4R-Block or Cy5.5-MT1-AF7p were injected via their tail vein with […]. Fluorescent images and analysis were performed by using an IVIS Lumina II imaging system (Caliper Life Sciences, MA, USA; Excitation Filter: 630 nm, Emission Filter: 700 nm) at different time point post-injection (1, 2, 4, 6, 12, and 24 h). During injection and image acquiring process, mice were anesthetized with 2.5% isoflurane in oxygen at a flow of 1.5 L/min. Images were normalized to the same scale and analyzed. For semi-quantitative comparison, the regions of interest (ROI) were drawn over the tissues of interest, and the scaled average signal (photons cm^−2 s^−1) for each area was measured. Fluorescent signals from ROI were further corrected by the mice body weights. Results were presented as the mean ± SD for a group of five animals.

MT1-MMP [2] = experiment: AFM force curve measurement, peptide on tip against immobilized MT1-MMP; assay type: binding, human; settings: 25 °C; for Binding force (peak position of force histogram): peptide on AFM tip via NHS-PEG18-aldehyde, MT1-MMP on APTES mica, PBS, 300 force curves, Gaussian fit
Procedure: The MT1-MMP catalytic domain (20 kDa) was expressed in Escherichia coli (E. coli) as inclusion bodies. The activated form was produced through refold method. The recombinant human MT1-MMP catalytic domain was produced by E. coli BL21 that carried expression plasmids. The bacteria were grown to an optical density of 0.4 at 37 °C prior to induction. The overexpression of the protein of interest was induced by adding […] to a final concentration of 0.5 mM. Cultivation was proceeded for 4 h before the bacteria were broken by an ultrasonic wave. The inclusion bodies (proMT1-MMP) were solubilized and purified through his-tag affinity chromatography (General Electric, USA), as well as refolded by using dialysis bags to gradually reduce high denaturant concentrations in this process. The refolding buffer included 50 mM HEPES, 10 mM CaCl2, 200 mM NaCl, 1 mM phenylmethylsulfonyl fluoride, 20 μM ZnCl2, 0.01% Brij-35, 5% Glycerol, 100 μg/ml DNase, at a pH 7.5.
The surface layer of the mica was stripped to expose the silanol group-coated surface. Then, the mica was treated with 3-aminopropyltriethoxysilane (APTES, vapor) for 1.5 h at room temperature and dried in vacuum. To immobilize the protein or the peptide, the activated mica surface was immerged into MT1-160p or MT1-MMP solution (300 µg/mL in PBS) for 15 min, rinsed and kept in PBS buffer.
AFM cantilever tips (MSCT) were purchased from Veeco (CA). The polypeptides were covalently immobilized on the tips by using chemical reactions as previously described. […]
The force curves were measured by using a PicoPSM 5500 instrument (Agilent Technologies, MA). […] The interaction force were detected at different points on the substrate. Over 1,000 force–distance cycles were collected, and a total of 300 force curves were recorded at different positions on the substrate. The average force values were summarized and calculated in the form of histograms and were expressed as a probability (%), which was obtained by dividing each count number by the total number of measured force curves.

MT1-MMP [3] = experiment: Isothermal titration calorimetry; set-up: species or system human; settings: 25 °C; 10 mM HEPES, 150 mM NaCl, pH 7.4; 1000 rpm; one-site binding model
Procedure: The ITC experiments were conducted by using a MicroCal ITC-200 system (General Electric, USA) to determine the thermodynamic parameters of the polypeptides. The peptide of interest was dissolved in 10 mM HEPES and 150 mM NaCl solution at pH 7.4. All titrations were performed at 25 °C by injecting aliquots of a 40 μL MT1-160p (1 mM) degassed solution in a syringe into the calorimeter cell containing 200 μL of binding peptides (0.1 mM) degassed solution at a stirring rate of 1000 rpm. The baseline was corrected manually and the heat data were processed by fitting the ITC data into the NanoAnalyze software.

[4] = system: MDA-MB-435 tumors (MT1-MMP)
Procedure: The mice were injected with 1 nM Cy5.5-peptide to evaluate the distribution of affinity peptides in tumor tissues and major organs. At 4 h post-injection, the tumor-bearing mice were sacrificed, and their major organs, tissues, and tumors were harvested and placed on a black paper for ex vivo imaging (IVIS Lumina II, Caliper Life Sciences, MA, USA). The results were presented as the average scaled signal from the organs and the tumors.

[5] = Whole-body small animal near-infrared fluorescence imaging; settings: athymic nude BALB/c, mouse, in vivo, iv
Procedure: as §1

[6] = system: MDA-MB-435 tumors (MT1-MMP); settings: cited from earlier work
Procedure: Among the mutated peptides selected by virtual screening and docking based on the calculated lowest binding energy, the binding affinities were tested by conducting AFM, ITC, and cell fluorescence imaging in vitro. The tumor targeting effects of the optimal peptide were further confirmed by performing an in vivo imaging experiment in a tumor-bearing mice model.

MT1-MMP: recombinant human MT1-MMP catalytic domain (20 kDa) refolded from E. coli inclusion bodies
Enzymatic activity against DQ-gelatin (DQ-gelatin from pig skin): 9.81 × 10^6

HWKRLHNTKTFL [MT1-AF7p-H4R, HWKRLHNTKTFL]
Specificity and affinity to MT1-MMP in optical imaging in vivo ([1]; compared with MT1-AF7p): higher specificity and affinity to the receptor (MT1-MMP) in optical imaging in vivo
Tumor imaging effect vs MT1-AF7p ([1]; i.v. tail vein, 10 μM (1 nM in 100 μL PBS), Cy5.5-labeled, p ≤ 0.01, n = 5/group): better than MT1-AF7p (p ≤ 0.01)
Fluorescence intensity in tumor site vs MT1-AF7p ([1]; i.v. tail vein, all time points from 2 h to 24 h, Cy5.5-labeled, n = 5/group): considerably stronger than that of MT1-AF7p at all the time points from 2 h to 24 h

CC[N+]1=C(C=CC=CC=C2N(CCCCCC(=O)N[C@@H](Cc3c[nH]cn3)C(=O)N[C@@H](Cc3c[nH]c4ccccc34)C(=O)N[C@@H](CCCCN)C(=O)N[C@@H](CCCNC(=N)N)C(=O)N[C@@H](CC(C)C)C(=O)N[C@@H](Cc3c[nH]cn3)C(=O)N[C@@H](CC(N)=O)C(=O)N[C@H](C(=O)N[C@@H](CCCCN)C(=O)N[C@H](C(=O)N[C@@H](Cc3ccccc3)C(=O)N[C@@H](CC(C)C)C(=O)O)[C@@H](C)O)[C@@H](C)O)c3ccc4c(S(=O)(=O)O)cc(S(=O)(=O)O)cc4c3C2(C)C)C(C)(C)c2c1ccc1c(S(=O)(=O)O)cc(S(=O)(=O)[O-])cc21 [Cy5.5-MT1-AF7p-H4R] (X1-HWKRLHNTKTFL-OH; C-terminus assumed)
Binding force (peak position of force histogram) (MT1-MMP [2]): 260 pN
Binding constant (Ka) (MT1-MMP [3]): 175000 M⁻¹
Clearance route ([4]; 4 h post-injection, ex vivo quantification): prominent renal clearance
Tumor fluorescent signal ex vivo ([4]; 4 h post-injection, i.v. 1 nM Cy5.5-peptide, average scaled signal): 8.04 × 10^7
Tumor fluorescent signal relative to MT1-AF7p ([4]; 4 h post-injection, 8.04 × 10^7 vs. 2.51 × 10^7): 3.2 times
Fluorescent signals in blocking group ([4]; ex vivo, blocked with excess free MT1-AF7p-H4R): very few fluorescent signals were detected in the blocking group
tissue to tissue ratio at 1 h [5]: 1.22 ± 0.22
tissue to tissue ratio at 2 h [5]: 2.77 ± 0.31
tissue to tissue ratio at 4 h [5]: 4.26 ± 0.56
Tumor signal after blocking with free peptide ([1]; excess free MT1-AF7p-H4R (1 μM) injected 30 min prior): Low Cy5.5-MT1-AF7p-H4R accumulation was observed
Time of maximum tumor accumulation (T/M) ([1]; i.v., MDA-MB-435 tumor): 4 h

Cy5.5 [reference compound]
Tumor accumulation of free dye ([6]; within 48 h post-injection): did not accumulate in the tumor site within 48 h post-injection

HWKKLHNTKTFL [MT1-AF7p-H4K, MT1-AF7p with histidine 4 mutated to Lys]
Affinity to MT1-MMP by AFM (MT1-MMP [2]; single-molecule recognition force spectroscopy): had a nearly identical binding capacity with MT1-MMP than MT1-AF7P

HWKHLHNTKTFL [MT1-AF7p]
Binding constant (Ka) (MT1-MMP [3]): 107000 M⁻¹

CC[N+]1=C(C=CC=CC=C2N(CCCCCC(=O)N[C@@H](Cc3c[nH]cn3)C(=O)N[C@@H](Cc3c[nH]c4ccccc34)C(=O)N[C@@H](CCCCN)C(=O)N[C@@H](Cc3c[nH]cn3)C(=O)N[C@@H](CC(C)C)C(=O)N[C@@H](Cc3c[nH]cn3)C(=O)N[C@@H](CC(N)=O)C(=O)N[C@H](C(=O)N[C@@H](CCCCN)C(=O)N[C@H](C(=O)N[C@@H](Cc3ccccc3)C(=O)N[C@@H](CC(C)C)C(=O)O)[C@@H](C)O)[C@@H](C)O)c3ccc4c(S(=O)(=O)O)cc(S(=O)(=O)O)cc4c3C2(C)C)C(C)(C)c2c1ccc1c(S(=O)(=O)O)cc(S(=O)(=O)[O-])cc21 [Cy5.5-MT1-AF7p] (X1-HWKHLHNTKTFL-OH; C-terminus assumed)
Tumor accumulation in MDA-MB-435 xenografts ([6]; compared with negative control): significantly higher tumor accumulation
Binding force (peak position of force histogram) (MT1-MMP [2]): 150 pN
Binding constant (Ka) (MT1-MMP [3]): 107000 M⁻¹
tissue to tissue ratio at 4 h [5]: 1.98
